The record followed here is patent US20240400701A1 (LANOVA MEDICINES DEVELOPMENT, published 2024).

Positions count from the first letter of the chain named. In names and notes the source's numbering stands.

B1: 94C4C3 H3L2 hIgG1 (antibody, V domains shown)
VH: QVQLQESGPGLVKPSETLSLTCTVSGYSITSDYAWNWIRQFPGKGLEWMGYISYSGSISYNPSLKSRITISRDTSKNQFFLKLSSVTAADTAVYYCARSRYSWFDYWGQGTLVTVSS
VL: EIVLTQSPGTLSLSPGERATLSCSASESVDTYGNSFMHWYQQKPGQPPRLLIYRASSLESGIPVRFSGSGSRTDFTLTISRLEPEDFAVYYCQQSNEDPYTFGGGTKVEIK
notes: Humanized, human IgG1; also called 94C4C3 H3L2 hlgG1
B2: 94C4C3 H4L1 hIgG1 (antibody, V domains shown)
VH: B1 VH with S25T, G45K, K82Q
VL: B1 VL with P47A, V64D, R72G
notes: Humanized, human IgG1; also called 94C4C3 H4L1 hlgG1
B3: 94C4C3 H4L2 hIgG1 (antibody, V domains shown)
VH: B1 VH with S25T, G45K, K82Q
VL: B1 VL
notes: Humanized, human IgG1; also called 94C4C3 H4L2 hlgG1
B4: 94C4C3 H3L3 hIgG1 (antibody, V domains shown)
VH: B1 VH
VL: B1 VL with L82V, P84A, V108L
notes: Humanized, human IgG1; also called 94C4C3 H3L3 hlgG1
B5: 94C4C3 H3L1 hIgG1 (antibody, V domains shown)
VH: B1 VH
VL: B1 VL with P47A, V64D, R72G
notes: Humanized, human IgG1; also called 94C4C3 H3L1 hlgG1
B6: 94C4C3 H3L4 hIgG1 (antibody, V domains shown)
VH: B1 VH
VL: B1 VL with E1D, L13V, R49K, L82V, P84A, V108L
notes: Humanized, human IgG1; also called 94C4C3 H3L4 hlgG1
B7: 94C4C3 H2L4 hIgG1 (antibody, V domains shown)
VH: B1 VH with V2L, F41P, F80S
VL: B1 VL with E1D, L13V, R49K, L82V, P84A, V108L
notes: Humanized, human IgG1; also called 94C4C3 H2L4 hlgG1
B8: 94C4C3 H2L3 hIgG1 (antibody, V domains shown)
VH: B1 VH with V2L, F41P, F80S
VL: B1 VL with L82V, P84A, V108L
notes: Humanized, human IgG1; also called 94C4C3 H2L3 hlgG1
B9: 94C4C3 H2L1 hIgG1 (antibody, V domains shown)
VH: B1 VH with V2L, F41P, F80S
VL: B1 VL with P47A, V64D, R72G
notes: Humanized, human IgG1; also called 94C4C3 H2L1 hlgG1
B10: 31D9B3 VH1-VL2.2 hIgG1 (antibody, V domains shown)
VH: QVQLVQSGAEVKKPGASVKVSCKASGYTFTDYWVSWVRQAPGQGLEWMGEIYPKNGVSNFNEKFKGRVTMTTDTSTSTAYMELRSLRSDDTAVYYCARQRDYWGQGTLVTVSS
VL: DVVMTQSPLSLPVTLGQPASISCRSSQSLEYGDRYTYLEWYLQRPGQSPRLLIYGVSNRFSGVPDRFSGSGSGTDFTLKISRVEAEDVGVYYCFQATHDPNTFGQGTKLEIK
notes: Humanized, PTM de-risked (VL G(30D)R), human IgG1; also called 31D9B3 VH1-VL2.2 hlgG1
B11: 31D9B3 VH1.3-VL2 hIgG1 (antibody, V domains shown)
VH: B10 VH with G56Q
VL: B10 VL with R34G
notes: Humanized, PTM de-risked (VH G55Q), human IgG1; also called 31D9B3 VH1.3-VL2 hlgG1
B12: 31D9B3 VH1.2-VL2 hIgG1 (antibody, V domains shown)
VH: B10 VH with G56D
VL: B10 VL with R34G
notes: Humanized, PTM de-risked (VH G55D), human IgG1; also called 31D9B3 VH1.2-VL2 hlgG1
B13: 31D9B3 VH1.2-VL2.2 hIgG1 (antibody, V domains shown)
VH: B10 VH with G56D
VL: B10 VL
notes: Humanized, PTM de-risked, human IgG1; also called 31D9B3 VH1.2-VL2.2 hlgG1
B14: 31D9B3 VH1.2-VL2.3 hIgG1 (antibody, V domains shown)
VH: B10 VH with G56D
VL: B10 VL with D33T, R34G
notes: Humanized, PTM de-risked, human IgG1; also called 31D9B3 VH1.2-VL2.3 hlgG1
B15: 31D9B3 VH1.2-VL2.1 hIgG1 (antibody, V domains shown)
VH: B10 VH with G56D
VL: B10 VL with D33S, R34G
notes: Humanized, PTM de-risked, human IgG1; also called 31D9B3 VH1.2-VL2.1 hlgG1
B16: 31D9B3 VH1.3-VL2.3 hIgG1 (antibody, V domains shown)
VH: B10 VH with G56Q
VL: B10 VL with D33T, R34G
notes: Humanized, PTM de-risked, human IgG1; also called 31D9B3 VH1.3-VL2.3 hlgG1
B17: 31D9B3 VH1.3-VL2.1 hIgG1 (antibody, V domains shown)
VH: B10 VH with G56Q
VL: B10 VL with D33S, R34G
notes: Humanized, PTM de-risked, human IgG1; also called 31D9B3 VH1.3-VL2.1 hlgG1
B18: 108F3D1E9 H3L1 hIgG1 (antibody, V domains shown)
VH: B1 VH with Y33F, Y54F, I58T, F80S, R98G, D105A
VL: DIQMTQSPSSLSASVGDRVTITCRASESVDTYGNSFMHWYQQKPGKAPKLLIYRASNLESGVPSRFSGSGSGTDFTLTISSLQPEDFATYYCQQSNEDPYTFGGGTKVEIK
notes: Humanized, human IgG1; also called 108F3D1E9 H3L1 hlgG1
B19: 108F3D1E9 H4L4 hIgG1 (antibody, V domains shown)
VH: B1 VH with Y33F, Y54F, I58T, K82Q, A89E, R98G, D105A
VL: DIVLTQSPSSLSVSVGDRATITCRASESVDTYGNSFMHWYQQKPGQPPKLLIYRASNLESGIPARFSGSGSRTDFTLTISSVQPEDFATYYCQQSNEDPYTFGGGTKLEIK
notes: Humanized, human IgG1; also called 108F3D1E9 H4L4 hlgG1
B20: 108F3D1E9 H3L2 hIgG1 (antibody, V domains shown)
VH: B1 VH with Y33F, Y54F, I58T, F80S, R98G, D105A
VL: B18 VL with M4L, A47P, V62I
notes: Humanized, human IgG1; also called 108F3D1E9 H3L2 hlgG1
B21: 108F3D1E9 H4L3 hIgG1 (antibody, V domains shown)
VH: B1 VH with Y33F, Y54F, I58T, K82Q, A89E, R98G, D105A
VL: B19 VL with V13A, A19V, R72G, L108V
notes: Humanized, human IgG1; also called 108F3D1E9 H4L3 hlgG1
B22: 108F3D1E9 H3L4 hIgG1 (antibody, V domains shown)
VH: B1 VH with Y33F, Y54F, I58T, F80S, R98G, D105A
VL: B19 VL
notes: Humanized, human IgG1; also called 108F3D1E9 H3L4 hlgG1
B23: 108F3D1E9 H3L3 hIgG1 (antibody, V domains shown)
VH: B1 VH with Y33F, Y54F, I58T, F80S, R98G, D105A
VL: B19 VL with V13A, A19V, R72G, L108V
notes: Humanized, human IgG1; also called 108F3D1E9 H3L3 hlgG1
B24: 108F3D1E9 H4L2 hIgG1 (antibody, V domains shown)
VH: B1 VH with Y33F, Y54F, I58T, K82Q, A89E, R98G, D105A
VL: B18 VL with M4L, A47P, V62I
notes: Humanized, human IgG1; also called 108F3D1E9 H4L2 hlgG1
B25: 108F3D1E9 H4L1 hIgG1 (antibody, V domains shown)
VH: B1 VH with Y33F, Y54F, I58T, K82Q, A89E, R98G, D105A
VL: B18 VL
notes: Humanized, human IgG1; also called 108F3D1E9 H4L1 hlgG1

The target in the first test is T1, human AMHRII (anti-Mullerian hormone receptor type 2) (human, UniProt Q16671 18-573).
T1 construct: whole, on cells; also called AMHR2; human AMHR2
T1 sequence (looked up): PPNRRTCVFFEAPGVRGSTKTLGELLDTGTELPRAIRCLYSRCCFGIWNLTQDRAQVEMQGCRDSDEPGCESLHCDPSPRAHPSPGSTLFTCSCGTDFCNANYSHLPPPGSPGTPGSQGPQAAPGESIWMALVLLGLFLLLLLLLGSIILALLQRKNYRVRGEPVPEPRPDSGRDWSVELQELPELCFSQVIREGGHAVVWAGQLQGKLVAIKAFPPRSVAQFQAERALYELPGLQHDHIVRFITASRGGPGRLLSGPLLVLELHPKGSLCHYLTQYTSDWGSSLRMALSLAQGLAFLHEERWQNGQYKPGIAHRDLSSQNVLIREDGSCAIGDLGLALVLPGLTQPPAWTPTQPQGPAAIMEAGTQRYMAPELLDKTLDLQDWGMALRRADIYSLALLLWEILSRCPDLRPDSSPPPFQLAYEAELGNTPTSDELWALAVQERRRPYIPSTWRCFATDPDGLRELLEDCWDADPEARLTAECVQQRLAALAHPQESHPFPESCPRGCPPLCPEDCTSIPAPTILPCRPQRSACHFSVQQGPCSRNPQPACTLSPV
Kind of test: FACS on CHO-K1 cells over-expressing human AMHR2. How it is done:
(§1) CHO-K1 cells over-expressed AMHR2 were harvested from flasks. 100 μl of 1×10⁶ cells/ml of cells were incubated with the humanized antibodies in 3-fold serial dilutions starting from 300 nM to 0.001 nM for 30 minutes on ice. After being washed with 200 μl of FACS buffer twice, cells were incubated with secondary antibody for 30 minutes on ice. Cells were washed with 200 μl of FACS buffer twice and analyzed by FACS.
As usually defined, the EC50 is the concentration needed to bring the measured effect to its halfway point. With B1, the EC50 was determined as 1.23 nM and the “Top (MFI)” value is 47700 MFI.
On to B2, for which the EC50 was determined as 1.12 nM and the “Top (MFI)” value was 49500 MFI.
Consider B3, for which the EC50 was found to be 1.02 nM and the “Top (MFI)” value stood at 48700 MFI.
Consider B4, for which the EC50 is 1.03 nM and the “Top (MFI)” value was determined as 46300 MFI.
B5: a half-maximal response (EC50) required 1.32 nM and the “Top (MFI)” value came to 51000 MFI.
On to B6, for which the EC50 came out at 1.35 nM and the “Top (MFI)” value amounted to 48100 MFI.

For another test, the target named is T1, human AMHRII (anti-Mullerian hormone …). Briefly: FACS on CHO-K1 cells over-expressing human AMHR2. This is another data set of the same source. How it is done:
as §1
B7: the EC50 was found to be 1.01 nM and the “Top (MFI)” value stood at 52500 MFI.
As for B8, the EC50 was determined as 1.32 nM and the “Top (MFI)” value is 55800 MFI.
For the molecule B9, it took 1.31 nM to reach a half-maximal effect (EC50) and the “Top (MFI)” value amounted to 52800 MFI.
For the molecule B10, the EC50 was determined as 0.485 nM and the “Top (MFI)” value stood at 22400 MFI.

For the next test the target is unchanged. Briefly: FACS on Rko cells over-expressing human AMHR2. How it is done:
Rko cells over-expressing AMHR2 were harvested from flasks. 100 μl of 1×10⁶ cells/ml of cells were incubated with primary PTM antibodies in 3-fold serial dilutions starting from 300 nM to 0.001 nM for 30 minutes on ice. After being washed with 200 μl of FACS buffer twice, cells were incubated with secondary antibody for 30 minutes on ice. Cells were washed with 200 μl of FACS buffer twice and analyzed by FACS.
As for B10, the EC50 is 0.915 nM and the “Top (MFI)” value stood at 17200 MFI.
Consider B11, for which the EC50 was determined as 0.976 nM and the “Top (MFI)” value came to 17900 MFI.
Take B12: a half-maximal response (EC50) required 1.35 nM and the “Top (MFI)” value amounted to 18200 MFI.
Regarding B13, the EC50 is 0.878 nM and the “Top (MFI)” value worked out at 16300 MFI.

A further test has the same target. Kind of test: FACS on CHO-K1 cells over-expressing human AMHR2. This is another data set of the same source. The protocol: as §1
B11: a half-maximal response (EC50) required 1.18 nM and the “Top (MFI)” value is 28000 MFI.
Take B14: it took 0.617 nM to reach a half-maximal effect (EC50) and the “Top (MFI)” value was 12900 MFI.
As for B15, the EC50 was found to be 5.68 nM and the “Top (MFI)” value was determined as 10600 MFI.
As to B16, the EC50 is 0.38 nM and the “Top (MFI)” value was found to be 12700 MFI.
Regarding B12, the response was half-maximal at 1.51 nM (EC50) and the “Top (MFI)” value was 26800 MFI.
On the same counts, the results for B13 are 0.856 nM and 22000 MFI.
Consider B17, for which a half-maximal response (EC50) required 1.2 nM and the “Top (MFI)” value is 10900 MFI.

The target is the same in the next test. Kind of test: FACS on CHO-K1 cells over-expressing human AMHR2. The source holds these as a separate data set. How it is done: as §1
Regarding B18, the EC50 amounted to 0.74 nM and the “Top (MFI)” value was determined as 65400 MFI.
On the same counts, the results for B19 are 0.65 nM and 70600 MFI.
With B20, it took 0.82 nM to reach a half-maximal effect (EC50) and the “Top (MFI)” value is 64600 MFI.
For B21, the EC50 came out at 0.74 nM and the “Top (MFI)” value amounted to 67300 MFI.
For B22, the EC50 is 0.88 nM and the “Top (MFI)” value stood at 70900 MFI.
The like results for B23 were, in that order, 0.82 nM and 66700 MFI.
For the molecule B24, a half-maximal response (EC50) required 0.68 nM and the “Top (MFI)” value turned out to be 67900 MFI.
In the case of B25, the EC50 is 0.55 nM and the “Top (MFI)” value stood at 64400 MFI.
